Data taken from patent publication US20230057263A1.

Target: human CD3 epsilon (CD3ε) (human) (UniProt P07766)
Assay: flow cytometry on human T cells

Substance: OKT3 (antibody)
- EC50 (read off the curve): 0.03 nM
